The data set deals with the molecule itself. Put plainly: thioflavin-T fluorescence (emission spectra and kinetics); 20 uM Th-T with 1-400 uM Stm1_N 1-113; 10 mM sodium phosphate with 10 or 150 mM NaCl, pH 7.4, 25 °C; emission at 0 h, kinetics until 72 h; signal from 50 uM onwards.

Data on 1 protein can be found in publication PMC10620681, “Concentration and time-dependent amyloidogenic characteristics of intrinsically disordered N-terminal region of Saccharomyces cerevisiae Stm1” (Frontiers in Microbiology, 2023).

B1: Stm1 N-terminal region (Stm1_N^1-113) of Saccharomyces cerevisiae Stm1 (domain or fragment, UniProt P39015 1-113, looked up)
chain: MSNPFDLLGNDVEDADVVVLPPKEIVKSNTSSKKADVPPPSADPSKARKNRPRPSGNEGAIRDKTAGRRNNRSKDVTDSATTKKSNTRRATDRHSRTGKTDTKKKVNQGWGDD
notes: Stm1, Saccharomyces cerevisiae (S288c), stm1 gene YLR150W, residues 1-113 of the 273 amino acids long protein; the insert is 342 nucleotides with the termination codon; Order in the construct: N-terminal His6-tag, GB1 solubility tag, TEV protease cleavage site, Stm1_N 1-113 (vector pDZ1, a modified pET-21a); A few residues from the TEV site and the NdeI site may be left at the N-terminus after …
Turning to B1, the binding result was “binds”.
